Test system: Escherichia coli TOP10
Experiment: shrunken log2 fold change of peptide-encoding DNA abundance (4.5 h post-induction vs induction); higher = less antimicrobial activity (less host growth inhibition)
Settings: time post-induction: 4.5 h; library: site-saturation at positions 5, 18, 19, 20
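Further: peptides expressed intracellularly from a pBAD plasmid library in pooled LB shake-flask culture, induced with 0.3% L-arabinose, DNA abundance read by NGS, three biological replicates, DESeq2 with apeglm shrinkage.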

Sequence	shrunken log2 fold change
RRIRLRPPRLPRPRPRPMLDPRP	0.014
RRIRLRPPRLPRPRPRPMMHPRP	0.0259
RRIRLRPPRLPRPRPRPMNDPRP	-0.219
RRIRLRPPRLPRPRPRPMNQPRP	-0.302
RRIRLRPPRLPRPRPRPMNRPRP	-0.0112
RRIRLRPPRLPRPRPRPMQAPRP	-0.0495
RRIRLRPPRLPRPRPRPMQPPRP	0.303
RRIRLRPPRLPRPRPRPMQRPRP	0.0784
RRIRLRPPRLPRPRPRPMRFPRP	0.0595
RRIRLRPPRLPRPRPRPMRLPRP	0.0402
RRIRLRPPRLPRPRPRPMRQPRP	0.181
RRIRLRPPRLPRPRPRPMSIPRP	-0.159
RRIRLRPPRLPRPRPRPMSRPRP	-0.00152
RRIRLRPPRLPRPRPRPMVCPRP	-0.0634
RRIRLRPPRLPRPRPRPMVQPRP	-0.147
RRIRLRPPRLPRPRPRPMWLPRP	-0.0867
RRIRLRPPRLPRPRPRPMWSPRP	-0.0258
RRIRLRPPRLPRPRPRPMYFPRP	-0.252
RRIRLRPPRLPRPRPRPMYVPRP	-0.199
RRIRLRPPRLPRPRPRPNACPRP	0.127
RRIRLRPPRLPRPRPRPNALPRP	-0.0646
RRIRLRPPRLPRPRPRPNATPRP	0.0161
RRIRLRPPRLPRPRPRPNDDPRP	-0.248
RRIRLRPPRLPRPRPRPNDPPRP	-0.213
RRIRLRPPRLPRPRPRPNDTPRP	-0.302

Sequence	shrunken log2 fold change
RRIRLRPPRLPRPRPRPNEAPRP	0.278
RRIRLRPPRLPRPRPRPNEMPRP	0.0287
RRIRLRPPRLPRPRPRPNEPPRP	-0.213
RRIRLRPPRLPRPRPRPNERPRP	-0.0191
RRIRLRPPRLPRPRPRPNHGPRP	-0.17
RRIRLRPPRLPRPRPRPNHQPRP	-0.19
RRIRLRPPRLPRPRPRPNINPRP	-0.686
RRIRLRPPRLPRPRPRPNKFPRP	-0.206
RRIRLRPPRLPRPRPRPNKLPRP	-0.307
RRIRLRPPRLPRPRPRPNLEPRP	0.0534
RRIRLRPPRLPRPRPRPNLKPRP	-0.367
RRIRLRPPRLPRPRPRPNMYPRP	-0.284
RRIRLRPPRLPRPRPRPNNCPRP	-0.207
RRIRLRPPRLPRPRPRPNNGPRP	0.0736
RRIRLRPPRLPRPRPRPNNTPRP	-0.687
RRIRLRPPRLPRPRPRPNQCPRP	-0.206
RRIRLRPPRLPRPRPRPNTVPRP	-0.0627
RRIRLRPPRLPRPRPRPNVAPRP	0.0405
RRIRLRPPRLPRPRPRPNVTPRP	-0.286
RRIRLRPPRLPRPRPRPNWEPRP	-0.111
RRIRLRPPRLPRPRPRPPAAPRP	0.771
RRIRLRPPRLPRPRPRPPADPRP	0.797
RRIRLRPPRLPRPRPRPPAWPRP	0.98
RRIRLRPPRLPRPRPRPPCDPRP	-0.29
RRIRLRPPRLPRPRPRPPCNPRP	-0.126

Sequence	shrunken log2 fold change
RRIRLRPPRLPRPRPRPPCVPRP	-0.0544
RRIRLRPPRLPRPRPRPPEFPRP	0.0526
RRIRLRPPRLPRPRPRPPFEPRP	0.182
RRIRLRPPRLPRPRPRPPFGPRP	0.0044
RRIRLRPPRLPRPRPRPPHRPRP	0.182
RRIRLRPPRLPRPRPRPPIRPRP	0.296
RRIRLRPPRLPRPRPRPPLGPRP	0.409
RRIRLRPPRLPRPRPRPPMAPRP	0.0265
RRIRLRPPRLPRPRPRPPQGPRP	1.27
RRIRLRPPRLPRPRPRPPSAPRP	0.654
RRIRLRPPRLPRPRPRPPSDPRP	0.432
RRIRLRPPRLPRPRPRPPTDPRP	0.127
RRIRLRPPRLPRPRPRPPVCPRP	0.124
RRIRLRPPRLPRPRPRPPVIPRP	-0.0477
RRIRLRPPRLPRPRPRPPVQPRP	0.553
RRIRLRPPRLPRPRPRPPWQPRP	0.594
RRIRLRPPRLPRPRPRPQALPRP	-0.042
RRIRLRPPRLPRPRPRPQCDPRP	-0.118
RRIRLRPPRLPRPRPRPQCLPRP	-0.455
RRIRLRPPRLPRPRPRPQGPPRP	-0.191
RRIRLRPPRLPRPRPRPQGYPRP	-0.141
RRIRLRPPRLPRPRPRPQHCPRP	-0.0642
RRIRLRPPRLPRPRPRPQIFPRP	-0.165
RRIRLRPPRLPRPRPRPQIGPRP	0.0441
RRIRLRPPRLPRPRPRPQKQPRP	0.17

Sequence	shrunken log2 fold change
RRIRLRPPRLPRPRPRPQLDPRP	0.0655
RRIRLRPPRLPRPRPRPQLEPRP	-0.0629
RRIRLRPPRLPRPRPRPQLFPRP	0.131
RRIRLRPPRLPRPRPRPQLPPRP	0.178
RRIRLRPPRLPRPRPRPQLVPRP	0.144
RRIRLRPPRLPRPRPRPQNKPRP	-0.432
RRIRLRPPRLPRPRPRPQPYPRP	-0.487
RRIRLRPPRLPRPRPRPQQFPRP	-0.0691
RRIRLRPPRLPRPRPRPQQKPRP	-0.167
RRIRLRPPRLPRPRPRPQQMPRP	-0.29
RRIRLRPPRLPRPRPRPQRAPRP	0.309
RRIRLRPPRLPRPRPRPQRFPRP	-0.142
RRIRLRPPRLPRPRPRPQRGPRP	0.111
RRIRLRPPRLPRPRPRPQRNPRP	-0.789
RRIRLRPPRLPRPRPRPQRVPRP	0.0215
RRIRLRPPRLPRPRPRPQSCPRP	0.123
RRIRLRPPRLPRPRPRPQVEPRP	0.0591
RRIRLRPPRLPRPRPRPQWFPRP	-0.0962
RRIRLRPPRLPRPRPRPQWIPRP	-0.0288
RRIRLRPPRLPRPRPRPQWMPRP	-0.0896
RRIRLRPPRLPRPRPRPQWPPRP	0.28
RRIRLRPPRLPRPRPRPQWSPRP	-0.0199
RRIRLRPPRLPRPRPRPQYFPRP	-0.158
RRIRLRPPRLPRPRPRPQYPPRP	-0.765
RRIRLRPPRLPRPRPRPRCCPRP	0.0851

Sequence	shrunken log2 fold change
RRIRLRPPRLPRPRPRPRCFPRP	-0.0548
RRIRLRPPRLPRPRPRPRCHPRP	-0.277
RRIRLRPPRLPRPRPRPRCKPRP	0.0707
RRIRLRPPRLPRPRPRPRCNPRP	-0.534
RRIRLRPPRLPRPRPRPREHPRP	0.204
RRIRLRPPRLPRPRPRPREKPRP	0.15
RRIRLRPPRLPRPRPRPRFSPRP	0.0406
RRIRLRPPRLPRPRPRPRFTPRP	0.0165
RRIRLRPPRLPRPRPRPRFWPRP	0.486
RRIRLRPPRLPRPRPRPRGCPRP	0.246
RRIRLRPPRLPRPRPRPRGNPRP	0.0735
RRIRLRPPRLPRPRPRPRHAPRP	0.537
RRIRLRPPRLPRPRPRPRHLPRP	-0.818
RRIRLRPPRLPRPRPRPRHQPRP	-0.254
RRIRLRPPRLPRPRPRPRITPRP	-0.027
RRIRLRPPRLPRPRPRPRIWPRP	0.394
RRIRLRPPRLPRPRPRPRKHPRP	-0.0984
RRIRLRPPRLPRPRPRPRKQPRP	0.0587
RRIRLRPPRLPRPRPRPRKTPRP	0.0104
RRIRLRPPRLPRPRPRPRLDPRP	0.363
RRIRLRPPRLPRPRPRPRLNPRP	-0.0854
RRIRLRPPRLPRPRPRPRLQPRP	0.15
RRIRLRPPRLPRPRPRPRPFPRP	0.358
RRIRLRPPRLPRPRPRPRPGPRP	0.687
RRIRLRPPRLPRPRPRPRPSPRP	0.435

Sequence	shrunken log2 fold change
RRIRLRPPRLPRPRPRPRRWPRP	0.497
RRIRLRPPRLPRPRPRPRSAPRP	0.29
RRIRLRPPRLPRPRPRPRWWPRP	0.13
RRIRLRPPRLPRPRPRPRYIPRP	-0.683
RRIRLRPPRLPRPRPRPRYPPRP	0.318
RRIRLRPPRLPRPRPRPSAGPRP	-0.0364
RRIRLRPPRLPRPRPRPSAIPRP	-0.189
RRIRLRPPRLPRPRPRPSCLPRP	-0.392
RRIRLRPPRLPRPRPRPSDNPRP	-0.49
RRIRLRPPRLPRPRPRPSEPPRP	-0.114
RRIRLRPPRLPRPRPRPSERPRP	-0.0849
RRIRLRPPRLPRPRPRPSFDPRP	-0.373
RRIRLRPPRLPRPRPRPSFHPRP	-0.457
RRIRLRPPRLPRPRPRPSHQPRP	-0.231
RRIRLRPPRLPRPRPRPSHTPRP	-0.258
RRIRLRPPRLPRPRPRPSHVPRP	-0.0453
RRIRLRPPRLPRPRPRPSHYPRP	-0.367
RRIRLRPPRLPRPRPRPSIGPRP	-0.378
RRIRLRPPRLPRPRPRPSIKPRP	-0.684
RRIRLRPPRLPRPRPRPSIVPRP	-0.294
RRIRLRPPRLPRPRPRPSKGPRP	-0.123
RRIRLRPPRLPRPRPRPSKKPRP	-0.0524
RRIRLRPPRLPRPRPRPSKTPRP	-0.258
RRIRLRPPRLPRPRPRPSLAPRP	0.13
RRIRLRPPRLPRPRPRPSLKPRP	0.0368

From the supplement of paper PMC9112550, “Optimization of the antimicrobial peptide Bac7 by deep mutational scanning” (BMC Biology, 2022)
